The values below are quoted from earlier work in PMC10320286.

pKd: −log10 of the molar value.

The target in the data set is IL-18BP (Homo sapiens) (UniProt O95998).
Sequence of IL-18BP (Homo sapiens) (O95998 31-194): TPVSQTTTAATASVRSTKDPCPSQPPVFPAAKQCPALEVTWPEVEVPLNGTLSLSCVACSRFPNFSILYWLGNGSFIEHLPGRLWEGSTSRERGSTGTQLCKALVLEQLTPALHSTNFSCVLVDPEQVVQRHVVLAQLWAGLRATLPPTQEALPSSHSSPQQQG

Sequence of IL-18 (Q14116 37-193): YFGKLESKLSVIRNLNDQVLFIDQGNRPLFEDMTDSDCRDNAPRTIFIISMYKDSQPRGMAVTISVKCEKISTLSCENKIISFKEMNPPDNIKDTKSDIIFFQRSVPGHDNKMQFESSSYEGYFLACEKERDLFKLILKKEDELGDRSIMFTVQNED

A word on the pKd: it is −log10 of the Kd, conventionally taken in molar units. As for IL-18 (from UniProt Q14116), the pKd is 10.42.
